{"source": "patent US20260166154A1", "about": "“METHODS FOR TREATING OBESITY” (AMGEN INC., priority 2022, published 2026)", "key": {"[1]": {"assay": "Phase 1 MAD cohorts: pharmacodynamic markers (fasting glucose, glucagon, HbA1c, hs-CRP)", "type": "in vivo, human", "conditions": "for hs-CRP reduction: day 127", "source_text": "(§1) Enrollment into the SAD and MAD cohorts was sequential.\n(§2) No missing data was imputed."}, "[2]": {"assay": "Predicted exposure multiples based on NOAEL established in cynomolgus monkeys", "set-up": "species or system cynomolgus monkey", "conditions": "NOAEL 120 mg/kg in cynomolgus monkeys", "source_text": "(§3) The rationale for dose selection for Part C is based on the available PK data from this ongoing FIH study cohorts 1 to 11 (Part A and Part B) and the NOAEL exposures established based on 13-week GLP repeat-dose studies in mouse and cynomolgus monkeys."}, "[3]": {"assay": "Phase 1 SAD/MAD clinical study: body weight, BMI, waist circumference", "type": "in vivo, human", "conditions": "for decrease in body weight: MAD 420 mg Q4W", "experimental": "Eligible participants were women of non-reproductive potential and men aged 18 to 65 years with a body mass index (BMI) between 30.0 kg/m2 and 40.0 kg/m2 and HbA1c≤6.5% and/or a fasting glucose of […]125 mg/dl. Participants had normal vital signs, 12-lead electrocardiogram results and clinical laboratory tests at the time of randomization.\nas §1, §2"}, "[4]": {"assay": "Phase 1 SAD/MAD clinical study (NCT04478708): pharmacokinetics", "type": "in vivo, human", "source_text": "as §1, §2"}, "[5]": {"assay": "Phase 1 SAD/MAD clinical study: safety and tolerability (TEAEs, vital signs)", "protocol": "This was a first-in-human, double-blind, randomized, placebo-controlled study comprised of two parts: single ascending dose (SAD) and multiple ascending dose (MAD) in participants with obesity.\nParticipants were randomly assigned to receive AMG133 or placebo in a ratio of 3:1. […] The MAD evaluated 3 doses given every 4 weeks on Days 1, 29 and 57. […] Enrollment into the SAD and MAD cohorts was sequential. Subsequent cohorts were dosed after the dosing regimen in the preceding cohort had been recommended by the Dose Level Review Team (DLRT) to be safe and well tolerated based on the safety and laboratory data through at least day 15. […] Placebo was provided as normal saline, the volume matching the investigational drug at each dose level.\nThe primary endpoints were the participant incidence of treatment-emergent adverse events, changes in laboratory safety tests, vital signs, and 12-lead electrocardiograms. […] The exploratory endpoints were pharmacodynamic parameters including, but not limited to, concentrations of fasting glucose, insulin, c-peptide, glucagon,, hemoglobin A1c, changes in body weight, waist circumference, and BMI.\nThe sample size for this trial was not based on any statistical inferences. As the trial was an exploratory first-in-human study with a small sample size, all pharmacokinetic, pharmacodynamic and safety parameters were analyzed descriptively. Participants who withdrew from the study prior to day 15 in the SAD or day 36 in the MAD were replaced so that the target numbers of participants for safety review and data collection would be achieved; replacement participants were assigned to receive the same treatment as the withdrawn participant. […] The safety analysis set was the same as the full analysis set. […] No missing data was imputed."}, "[6]": {"assay": "Predicted exposure multiples based on NOAEL established in mice", "set-up": "species or system mouse", "conditions": "NOAEL 150 mg/kg in mice", "source_text": "as §3"}, "[7]": {"conditions": "Intact AMG 133, cohort 13, 420 mg SC"}, "[8]": {"conditions": "Total AMG 133, cohort 12, 420 mg SC"}, "[9]": {"conditions": "Total AMG 133, cohort 13, 420 mg SC"}, "[10]": {"conditions": "Intact AMG 133, cohort 12, 420 mg SC"}}, "data": [{"substance": "maridebart cafraglutide [AMG 133]", "values": [{"measurement": "hs-CRP reduction", "setting": "[1]; MAD 140 mg", "value": "normalized to baseline"}, {"measurement": "glucagon", "setting": "[1]; MAD 280 mg, day 85 and day 127", "value": "greatest reduction in glucagon was observed at day 85 which normalized by day 127"}, {"measurement": "fasting glucose", "setting": "[1]; MAD 420 mg, safety follow up (day 127)", "value": "lower glucose levels were maintained"}, {"measurement": "fasting glucose", "setting": "[1]; MAD 140 and 280 mg, safety follow up (day 127)", "value": "returned to above baseline"}, {"measurement": "fasting glucose", "setting": "[1]; MAD 140 and 420 mg, day 29 and 85", "value": "decreased in a dose-responsive manner"}, {"measurement": "hs-CRP reduction", "setting": "[1]; MAD 280 and 420 mg", "value": "sustained until day 127"}, {"measurement": "hs-CRP change from baseline", "setting": "[1]; MAD cohorts", "value": "dose-responsive decrease"}, {"measurement": "HbA1c levels", "setting": "[1]; MAD, all three dose groups, normal range at baseline", "value": "decreased in all three dose groups but trended towards baseline at day 127"}, {"measurement": "Predicted Exposure Multiples Monkey AUC", "setting": "[2]; [7]", "value": "~43.2", "unit": "fold"}, {"measurement": "Predicted Exposure Multiples Monkey AUC", "setting": "[2]; [8]", "value": 48.9, "unit": "fold"}, {"measurement": "Predicted Exposure Multiples Monkey AUC", "setting": "[2]; [9]", "value": "~45.5", "unit": "fold"}, {"measurement": "maximal reduction of body weight from baseline", "setting": "[3]; MAD 140 mg Q4W, after 3 doses, day 78", "value": 7.44, "unit": "%"}, {"measurement": "reduction of body weight from baseline", "setting": "[3]; MAD 140 mg Q4W, post-dose day 7", "value": 1.97, "unit": "%"}, {"measurement": "waist circumference", "setting": "[3]; MAD 140 mg and 420 mg", "value": "dose-dependent decrease"}, {"measurement": "waist circumference", "setting": "[3]; MAD 280 mg", "value": "fluctuations in waist circumference changes"}, {"measurement": "decrease in body weight", "setting": "[3]; day 7", "value": "−4.86", "unit": "%"}, {"measurement": "decrease in body weight", "setting": "[3]; day 85", "value": "−14.5", "unit": "%"}, {"measurement": "duration of body weight reduction", "setting": "[3]; MAD cohorts, multiple doses", "value": "maintained until end of study day 207"}, {"measurement": "change from baseline in BMI", "setting": "[3]; SAD and MAD", "value": "followed a similar pattern as the change in body weight"}, {"measurement": "duration of body weight decrease", "setting": "[3]; all SADs except lowest dose 21 mg", "value": "maintained until day 150"}, {"measurement": "change in mean body weight from baseline", "setting": "[3]; all dose levels (SADs and MADs)", "value": "decreases in mean body weight from baseline"}, {"measurement": "maximal decrease of body weight from baseline", "setting": "[3]; single dose 21 mg, day 29", "value": 2.39, "unit": "%"}, {"measurement": "mean percent change of body weight from baseline", "setting": "[3]; single dose 21 mg, post-dose day 6", "value": "−1.59", "unit": "%"}, {"measurement": "mean percent change of body weight from baseline", "setting": "[3]; single dose 840 mg, day 6", "value": "−2.85", "unit": "%"}, {"measurement": "maximal decrease of body weight from baseline", "setting": "[3]; single dose 840 mg, day 92", "value": 8.24, "unit": "%"}, {"measurement": "dose proportionality of pharmacokinetics", "setting": "[4]; doses 21 mg to 840 mg", "value": "dose-proportional"}, {"measurement": "pharmacokinetics linearity based on Cmax", "setting": "[4]; preliminary review, FIH SAD and MAD, AUC data pending", "value": "linear, dose proportional kinetics"}, {"measurement": "heart rate", "setting": "[5]; MAD cohorts", "value": "the 280 mg cohort had higher heart rates than the 140 mg or 420 mg cohort"}, {"measurement": "nausea and vomiting", "setting": "[5]; MAD cohorts", "value": "all participants who received AMG 133 experienced mild nausea and vomiting"}, {"measurement": "subjects reporting mild GI-related adverse events (mainly nausea, vomiting, diarrhea)", "setting": "[5]; MAD cohorts 7 to 10, after the first dose", "value": "Approximately 90%"}, {"measurement": "subjects experiencing GI-related adverse events", "setting": "[5]; MAD cohorts 7 to 10, after the second dose", "value": "less than 5%"}, {"measurement": "serious adverse events or deaths", "setting": "[5]; MAD cohorts 7 to 10, any dose", "value": "no serious adverse events or deaths reported after any of the doses"}, {"measurement": "subjects who discontinued the study prior to receiving the second dose", "setting": "[5]; MAD trial", "value": "Approximately 26%"}, {"measurement": "serious TEAEs, TEAEs leading to permanent discontinuation, severe TEAEs", "setting": "[5]; SAD and MAD", "value": "No serious TEAEs, TEAEs leading to permanent discontinuation, or severe TEAEs were reported"}, {"measurement": "tolerability", "setting": "[5]; SAD and MAD participants", "value": "tolerated AMG 133 well"}, {"measurement": "dyspepsia", "setting": "[5]; SAD cohorts", "value": "more frequently reported with lower doses (70 mg and 140 mg)"}, {"measurement": "heart rate", "setting": "[5]; SAD cohorts", "value": "increased with a single dose of 280, 560 or 840 mg AMG 133 but not in a dose-dependent manner"}, {"measurement": "nausea and vomiting", "setting": "[5]; SAD cohorts", "value": "reported in participants treated with ≥70 mg AMG 133"}, {"measurement": "severity of GI-related TEAEs", "setting": "[5]; SAD cohorts", "value": "all GI-related TEAEs were mild except one participant in the 140 mg cohort had moderate GI symptoms"}, {"measurement": "serious adverse events or deaths", "setting": "[5]; SAD cohorts 1 to 6 and 11", "value": "no serious adverse events or deaths have been reported"}, {"measurement": "subjects who withdrew consent due to GI-related adverse events", "setting": "[5]; cohort 9, after 420 mg dose on day 1", "value": 50, "unit": "%"}, {"measurement": "blood pressure", "setting": "[5]; single dose or multiple doses", "value": "No meaningful changes in blood pressure"}, {"measurement": "Predicted Exposure Multiples Mouse AUC", "setting": "[6]; [10]", "value": "~42.4", "unit": "fold"}, {"measurement": "Predicted Exposure Multiples Mouse Cmax", "setting": "[6]; [10]", "value": "~43", "unit": "fold"}, {"measurement": "Predicted Exposure Multiples Mouse AUC", "setting": "[6]; [7]", "value": "~40.6", "unit": "fold"}, {"measurement": "Predicted Exposure Multiples Mouse Cmax", "setting": "[6]; [7]", "value": "~41.3", "unit": "fold"}, {"measurement": "Predicted Exposure Multiples Mouse AUC", "setting": "[6]; [8]", "value": 51, "unit": "fold"}, {"measurement": "Predicted Exposure Multiples Mouse Cmax", "setting": "[6]; [8]", "value": 54.3, "unit": "fold"}, {"measurement": "Predicted Exposure Multiples Mouse AUC", "setting": "[6]; [9]", "value": "~47.5", "unit": "fold"}, {"measurement": "Predicted Exposure Multiples Mouse Cmax", "setting": "[6]; [9]", "value": "~50.9", "unit": "fold"}]}]}
